# Test results taken from patent US20160333061A1.
# How the values were obtained:
# Assay in all cases: cell-based or functional assay
# [1] = target: CytERM-moxBFP (Aequorea victoria (Water jellyfish) (Mesonema victoria)) [GFP: P42212]
# [2] = target: CytERM-mTagBFP
# [3] = target: CytERM-EBFP2 (Aequorea victoria (Water jellyfish) (Mesonema victoria)) [GFP: P42212]
substance,measurement,setting,value
CytERM-moxBFP (from UniProt P42212 2-238),% Cells with OSER Structures (n = cells),[1],0.9%
CytERM-mTagBFP,% Cells with OSER Structures (n = cells),[2],43.5%
CytERM-EBFP2 (from UniProt P42212 2-238),% Cells with OSER Structures (n = cells),[3],63.7%
